In patent publication US20180289802A1 (CELGENE, published 2018):

T1: murine PD-1 (mouse, UniProt Q02242 25-167, limits assumed)
T1 construct: also called mouse PD-1
T1 sequence (looked up): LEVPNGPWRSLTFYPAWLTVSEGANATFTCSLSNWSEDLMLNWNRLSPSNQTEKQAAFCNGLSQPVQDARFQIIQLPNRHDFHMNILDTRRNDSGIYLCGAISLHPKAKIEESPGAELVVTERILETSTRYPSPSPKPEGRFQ


Key:
[1] = biological target: T2, human PD-1 (soluble / purified antigen, construct not stated) (human, UniProt Q15116 25-170, limits assumed); assay: Biacore (SPR), n = 4; Biacore, n = 4 (not KinExA 575 pM)
T2 construct: also called soluble antigen

[2] = biological target: T3, human PD-1 expressed on cells (human, UniProt Q15116 25-198); assay: cell-based or functional assay
[3] = biological target: T3, human PD-1 expressed on cells; assay: cell-based or functional assay; remark: listed apart in the source
[4] = biological target: T3, human PD-1 expressed on cells; assay: cell-based or functional assay; remark: listed apart in the source
[5] = biological target: T3, human PD-1 expressed on cells; assay: competition with DyL650-PD-L1 for binding to cell surface human PD-1 (CHO), flow cytometry
[6] = biological target: T2, human PD-1 (soluble / purified antigen, …); assay: KinExA, n = 2
[7] = biological target: T2, human PD-1 (soluble / purified antigen, …); assay: Biacore (SPR), n = 2
[8] = biological target: T2, human PD-1 (soluble / purified antigen, …); assay: KinExA, n = 1
murine PD-1 = biological target: T1, murine PD-1; assay: assay not described; stated in the discussion of the crystal structure

T3 sequence (Q15116 25-198 limits assumed): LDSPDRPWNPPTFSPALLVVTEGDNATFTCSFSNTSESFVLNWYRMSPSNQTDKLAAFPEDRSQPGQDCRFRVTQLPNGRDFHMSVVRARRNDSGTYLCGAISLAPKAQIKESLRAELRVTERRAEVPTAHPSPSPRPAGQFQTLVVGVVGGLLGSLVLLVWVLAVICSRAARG
T2 sequence (Q15116 25-170 limits assumed): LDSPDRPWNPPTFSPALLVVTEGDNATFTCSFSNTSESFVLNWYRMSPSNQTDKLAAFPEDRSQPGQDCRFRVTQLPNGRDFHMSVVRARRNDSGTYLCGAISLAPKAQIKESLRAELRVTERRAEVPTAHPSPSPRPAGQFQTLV

Kd [1] [nM]	CD4+ T cell IL-2 inhibition (EC50) [2] [nM]	IFN-γ EC50, PBMC reactivation assay [3] [nM]	IFN-γ EC75, PBMC reactivation assay [3] [nM]	IL-2 EC50, PBMC reactivation assay [3] [nM]	IL-2 EC75, PBMC reactivation assay [3] [nM]	IL-17 EC50, PBMC reactivation assay [3] [nM]	IL-17 EC75, PBMC reactivation assay [3] [nM]	IL-2 EC50, human whole blood assay [4] [nM]	hIFN-γ EC50, human whole blood assay [4] [nM]	hIL-17 EC50, human whole blood assay [4] [nM]	IC50 [5] [nM]	Kd [6] [nM]	Kd [7] [nM]	Kd [8] [nM]	binding result (murine PD-1)	Binder
5	22	46	85	21	40	41	65	8.3	5.9	7.2	> 100	0.575				PD1AB-1 (antibody, V domains shown, also called parental clone PD1AB-1; HC/LC TOPO vector 3015/3017) VH: EVQLVQSGAEVKKPGATVKISCKVSGFNIKDTYMHWVQQAPGKGLEWMGRIDPANGDRKYDPKFQGRVTITADTSTDTAYMELSSLRSEDTAVYYCARSGPVYYYGSSYVMDYWGQGTTVTVSS VL: DIVMTQSPDSLAVSLGERATINCKSGQSVLYSSNQKNFLAWYQQKPGQPPKLLIYWASTRESGVPDRFSGSGSGTDFTLTISSLQAEDVAVYYCHQYLYSWTFGQGTKLEIKR
	21			24	46						> 100		7	0.35		PD1AB-3 (antibody, V domains shown, also called HC/LC TOPO vector 3653/3646) VH: EVQLVQSGAEVKKPGATVKISCKVSGFNIKDTYMHWVQQAPGKGLEWMGRIDPANGDRKYDPKFQGRVTITADTSTNTAYMELSSLRSEDTAVYYCARSGPVYYYGSSYVMDYWGQGTTVTVSS VL: DIVMTQSPDSLAVSLGERATINCKSGQSVLYSSNQKNFLAWYQQKPGQPPKLLIYWASTRESGVPDRFSGSGSGTDFTLTISNLQAEDVAVYYCHQYLYSWTFGQGTKLEIKR
	16	36	67	24	33	37	56	4	4.1	3.6	> 100		6	0.45	no binding	PD1AB-6 (antibody, IgG1, V domains shown, also called HC/LC TOPO vector 3650/3017) VH: EVQLVQSGAEVKKPGATVKISCKASGFNIKDTYMHWVQQAPGKGLEWMGRIDPANGDRKYDPKFQGRVTITADTSTDTAYMELSSLRSEDTAVYYCARSGPVYYYGSSYVMDYWGQGTTVTVSS VL: DIVMTQSPDSLAVSLGERATINCKSGQSVLYSSNQKNFLAWYQQKPGQPPKLLIYWASTRESGVPDRFSGSGSGTDFTLTISSLQAEDVAVYYCHQYLYSWTFGQGTKLEIKR
	27	58	91	24	42	36	59	8.4	7.6	8.9	> 100		5	0.425		PD1AB-2 (antibody, V domains shown, also called HC/LC TOPO vector 3015/3193) VH: EVQLVQSGAEVKKPGATVKISCKVSGFNIKDTYMHWVQQAPGKGLEWMGRIDPANGDRKYDPKFQGRVTITADTSTDTAYMELSSLRSEDTAVYYCARSGPVYYYGSSYVMDYWGQGTTVTVSS VL: not shown
	15			36	58						> 100		6	0.4		PD1AB-5 (antibody, V domains shown, also called HC/LC TOPO vector 3650/3193) VH: EVQLVQSGAEVKKPGATVKISCKASGFNIKDTYMHWVQQAPGKGLEWMGRIDPANGDRKYDPKFQGRVTITADTSTDTAYMELSSLRSEDTAVYYCARSGPVYYYGSSYVMDYWGQGTTVTVSS VL: not shown
	23	34	64	20	39	27	52	10.2	9.2	9.9	> 100		6	0.5		PD1AB-4 (antibody, V domains shown, also called HC/LC TOPO vector 3653/3193) VH: EVQLVQSGAEVKKPGATVKISCKVSGFNIKDTYMHWVQQAPGKGLEWMGRIDPANGDRKYDPKFQGRVTITADTSTNTAYMELSSLRSEDTAVYYCARSGPVYYYGSSYVMDYWGQGTTVTVSS VL: not shown
